Data reported in PMC4751435 (2016).
Each block holds one substance with its values, some of them ahead of it.

Assays:
Assay in all cases: BRET
[1] = biological target: YFP-SUMO1 alanine mutant (AA), P63165-1; conditions: HEK293 cells; n = 3; control donor (nuclear-targeted luciferase) est. 0.005; parent: est. 0.15; read off a plot
[2] = biological target: YFP-SUMO3 alanine mutant (AA), P55854-2; conditions: HEK293 cells; n = 3; control donor (nuclear-targeted luciferase) est. 0.034; parent: est. 0.23; read off a plot
[3] = biological target: luciferase-FOXP2 (wild-type, full-length 1-715) (UniProt O15409); conditions: HEK293 cells, n = 3, read off a plot
luciferase-FOXP1 = luciferase-FOXP1 (UniProt Q9H334); conditions: HEK293 cells, n = 3, read off a plot
[4] = biological target: luciferase-FOXP2 (wild-type, full-length 1-715) (UniProt O15409); conditions: HEK293 cells, n = 3, read off a plot; remark: listed apart in the source
[5] = biological target: YFP-SUMO2 alanine mutant (AA), P61956-1; conditions: HEK293 cells; n = 3; control donor (nuclear-targeted luciferase) est. 0.028; parent: est. 0.20; read off a plot
[6] = biological target: YFP-SUMO1 alanine mutant (AA), P63165-1; conditions: HEK293 cells; n = 3; control donor (nuclear-targeted luciferase) est. 0.004; parent: est. 0.15; read off a plot
[7] = biological target: YFP-SUMO3 alanine mutant (AA), P55854-2; conditions: HEK293 cells; n = 3; control donor (nuclear-targeted luciferase) est. 0.034; parent: est. 0.23; read off a plot; remark: listed apart in the source
[8] = biological target: YFP-SUMO2 alanine mutant (AA), P61956-1; conditions: HEK293 cells; n = 3; control donor (nuclear-targeted luciferase) est. 0.028; parent: est. 0.20; read off a plot; remark: listed apart in the source
[9] = control donor (nuclear-targeted luciferase) est. 0.034, parent: est. 0.23
[10] = control donor (nuclear-targeted luciferase) est. 0.028, parent: est. 0.20

YFP-SUMO1 alanine mutant (AA), P63165-1, sequence (P63165 1-97, change not shown): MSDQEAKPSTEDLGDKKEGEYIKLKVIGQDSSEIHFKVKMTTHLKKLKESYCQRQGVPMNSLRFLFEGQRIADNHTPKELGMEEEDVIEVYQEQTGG
YFP-SUMO3 alanine mutant (AA), P55854-2, sequence (P55854 other isoform, or with tags, fused parts or gaps, change not shown): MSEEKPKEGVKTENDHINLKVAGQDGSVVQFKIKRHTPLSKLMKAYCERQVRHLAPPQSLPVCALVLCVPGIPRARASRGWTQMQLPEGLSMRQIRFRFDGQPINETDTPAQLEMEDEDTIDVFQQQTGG

Substance: m1; m12 FOXP2:K674R; SUMO3:AA
response [2]: 0.043 BRET ratio

Substance: YFP-SUMO3 (wild-type, GG) (from UniProt P55854) AA
response [3, 9]: 0.065 BRET ratio | response (luciferase-FOXP1; control donor (nuclear-targeted luciferase) est. 0.015, parent: est. 0.20): -0.035 BRET ratio | response ([4]; control donor (nuclear-targeted luciferase) est. 0.015, parent: est. 0.15): 0.012 BRET ratio | response [4, 9]: 0.065 BRET ratio

Substance: YFP-SUMO1 (wild-type, GG) (from UniProt P63165-1) AA
response ([3]; control donor (nuclear-targeted luciferase) est. 0.004, parent: est. 0.15): 0.019 BRET ratio | response (luciferase-FOXP1; control donor (nuclear-targeted luciferase) est. 0.000, parent: est. 0.15): -0.043 BRET ratio | response ([4]; control donor (nuclear-targeted luciferase) est. 0.000, parent: est. 0.077): -0.017 BRET ratio | response ([4]; control donor (nuclear-targeted luciferase) est. 0.005, parent: est. 0.15): 0.019 BRET ratio

Substance: m1; m11 FOXP2:K674R; SUMO2:AA
response [5]: 0.021 BRET ratio

Substance: m1; m10 FOXP2:R553H; SUMO1:AA
response [6]: 0.008 BRET ratio

Substance: m1; m11 FOXP2:R553H; SUMO2:AA
response [8]: 0.048 BRET ratio

More lines, now with the values ahead:

response [1]: 0.012 BRET ratio
Substance: m1; m10 FOXP2:K674R; SUMO1:AA

response [7]: 0.027 BRET ratio
Substance: m1; m12 FOXP2:R553H; SUMO3:AA

response [3, 10]: 0.032 BRET ratio | response (luciferase-FOXP1; control donor (nuclear-targeted luciferase) est. 0.012, parent: est. 0.19): -0.036 BRET ratio | response ([4]; control donor (nuclear-targeted luciferase) est. 0.012, parent: est. 0.13): 0.005 BRET ratio | response [4, 10]: 0.032 BRET ratio
Substance: YFP-SUMO2 (wild-type, GG) (from UniProt P61956-1) AA
